Reference: the DeepSol protein solubility set

Test: soluble on expression in E. coli; label from the status in PepcDB or PDB records

| Sequence | soluble on expression in E. coli |
| --- | --- |
| MRSSTIPAITPAYDPWEAYVDIKEYGKLQLTNIEFTTTTLCNMRCEHCAVGYTLTMKDPEALPLDMLLRRLEEIPHLRSLSITGGEPMLSLKSVEQYVVPLLRYAHERGVRTQLNSNLTLDLSRYEPVIPYLDVLHISHNWGTVDDFVEGGFAMMERKPTRAQREKYFQRMLDNAKALANAGVMVSAETMLNKRTVRHLEAIHRQVVEEMGCQRHEIHPMYPSDFASALETLSLDELREAIHHLLDIRDENVWMLFGTLPFYPCSDNEEDVRLLKRLYESKNVTVRNDPDGRSRLNVNIFTGDVIVTDFGDEPPLGNIIHDSLPDVYDKWRRSKLARELLCHCPSARCLGPNVLVKQTYYRGVDFTKRSARIGR | not soluble |
| MRTDLALDFSVNKENKTITIKREFAAVRAIVWEAFTRAEILDQWWAPKPWKAKTKSMDFKEGGTWLYAMVGPNGEEHWSICEYAIIKPIERFTGKDGFTDASGKLNTEMPRSNWDMRFIDKGEITEVQYHISYDDVAQLEATIQMGFKEGITMAMENLDELLVSGKKLEHHHHHH | soluble |
| MRTHDDTWDIKTSVGATAVMVAAARAVETDRPDPLIRDPYARLLVTNAGAGAIWEAMLDPTLVAKAAAIDAETAAIVAYLRSYQAVRTNFFDTYFASAVAAGIRQVVILASGLDSRAYRLDWPAGTIVYEIDQPKVLSYKSTTLAENGVTPSAGRREVPADLRQDWPAALRDAGFDPTARTAWLAEGLLMYLPAEAQDRLFTQVGAVSVAGSRIAAETAPVHGEERRAEMRARFKKVADVLGIEQTIDVQELVYHDQDRASVADWLTDHGWRARSQRAPDEMRRVGRWVEGVPMADDPTAFAEFVTAERL | soluble |
| MRTIVFDVDDTLYDQQQPFRNAMTKIFPNVATEDMHELYLRFRHHSDETFPKVLANEWSLDFMRFFRMNETLKDLNYPGISQEEGKIFQQVYEEELDNITMHPEVTKLLDTLQEKEIPMGIITNGPTDHQFKKVKQLNIEKWVPSQNIIISQSTGFQKPEKEIFDLACNQFCMEPEHTLYVGDSYDNDIVGARNGGWHSLWFNHRSRELPSCQPASHLAEVTCFTELCPTVEKLFNL | not soluble |
| MRTKYILELFDTSEQHKPIARFESSTPFTAASVGERFDDIGWERLDGAGKIASPLSPKRYTVHSAKHLVIVEAGALVIKYCLNLEPFSGPSSPVWGDE | not soluble |
| MRTLLDLDPKGKRVLVRVDYNVPVQDGKVQDETRILESLPTLRHLLAGGASLVLLSHLGRPKGPDPKYSLAPVGEALRAHLPEARFAPFPPGSEEARREAEALRPGEVLLLENVRFEPGEEKNDPELSARYARLGEAFVLDAFGSAHRAHASVVGVARLLPAYAGFLMEKEVRALSRLLKDPERPYAVVLGGAKVSDKIGVIESLLPRIDRLLIGGAMAFTFLKALGGEVGRSLVEEDRLDLAKDLLGRAEALGVRVYLPEDVVAAERIEAGVETRVFPARAIPVPYMGLDIGPKTREAFARALEGARTVFWNGPMGVFEVPPFDEGTLAVGQAIAALEGAFTVVGGGDSVAAVNRLGLKERFGHVSTGGGASLEFLEKGTLPGLEVLEG | soluble |
| MRTLPILLLVIVGVVYCYPLNEDNVDLESDVAEMEGAELDRVKRASDHKLEKKLDEIMEKVEKIKDKIEENKEKREKKNKKKGNKKDEDEEEEEDKDKKKKDKKKNKDSEEEEDKKKDKKKKNDSSDESEEENKKRKNKRKN | not soluble |
| MRTQTFPPSSSSSRTTHPKKNRHSSNSSSMALVTPAKSSTGAAPKQSSQSGWDYWTRVYSDDAQTTGTPRDVRISDMLSSESLIRAKLLFLNVPSLPSAHKNIILNLVKRELNHDISIQDVVVVPPAKWFLNFYRPEDALKVMKHLNGYSYRGHILAVRFCYPDGTYGDESALTELVQCTNSAKGRILEKKDIVQDTFAVECWTKTEFDSLKVFEKELTNLLKAHAYLPYHTVLQSMRNLFTCKVQSELSSMFISDALAQWPTGLIRIFNRNVKVVSNTMCLSSSSYYTQRIHDSALEGGCSVHRNSWEPTVPDDIRSEVQLIQYTNSFLGHFGPQNIDVDIPIRILAQSLRGTWPKTGPKLAALLTEISSGFVLINRVLYLSSNLHHHEKIIDNLACFQDDCTDVYFLPLSCTTEDQKGKTVDYEDI | not soluble |
| MRVDLERQQHQFLRRTYGPQHRLTTQQALTVMRVAAREQTRYSQRTTQCVAAHLLEQRAAVQQELQRARQLQSGNVDDALDSLTELKDTVDDVRATLVDSVSATCDLDLEVDDAVLEHHHHHH | not soluble |
| MRVEKAWFLADGAEAPEGLPEGGFREVALPHQWSLEGVEAEVGWYRLALPEAGPRRFLLSFGDYYQEAWLDGTYLGRHEGYFFPWVLELPKGKELFLRVSAPKEPLGVWPRFKRQIKGVFGQHDCRPGGTTARGQERGTGGLWGGVEVWAREEVALLGLAHRLFPRAGGWRLWVRLLVDAQRPFRERARLFLVPANFPGEALEREAVLEGEAGRAWREVVWDLPEMPLWEVWERGFPHLFRLEADLLGARLGVPLGFRTVEVDGEGWLLLNGKRLFLRGTNAIPTQWLAAYSEAMAQKDVALLKEANLNAVRVHAHVTHPAFYAACDREGVLVWQDFPLQWGYAPDEAFAQEALRQARAMVEVLGAHPSVYLWCAQNEPTHNRHALGPLLAAALRAADPTRPVKEASDFREHPYPGWYRGHYRDFLALPGAPLPSEFGAQALPRAELLRRVLGEAAWPPRWEVWAYHNFQPHETFRVARVEMGESLEEFVERSQDYQARLIEFAVHAYRRAKGKVVGYFQFMFVEPWEGITWAVLDVERVPKKGFFALKEASSPVLLSLVPYRERVEVGGPPCRRPGS | soluble |
| MRVSLFLQKQIIECSKAFQPHSTRLQWPKSQDKVFVAMSGGVDSSFSAYLLKSQGYNVEGVFMRNWLDEDSAPSGCPAERDWATVQKVCKKLNISCRRFNFEKEYWNLVFEPSLDLYENGLTPNPDVSCNRQVKFGALFDALKKHCENNVKGDWWLASGHYAKSVVNIETNESHMCIPTDKRKDQTLFLCTIRKEALEKTIFPLHNWTKENVKKQASSAGFKEIAEKQESQGLCFVSPNVGRKFRKFLQRYLNFSDRPIKVIAGKNVVGEFSGNHGIWSLTVGERCGLSLPQAQSEYFGRWYVWKKDIKNNALYICRGTNNELLMSKCIYLKDWKWCGTKLQNLEKSALSCFVRVRHQQPLQPAKVTWRNPESVKIHFQDKQRAVTPGQVIAVYVNDVCLGGGMVDTVEPEKDFD | soluble |
| MRVVVSIGGSVLAPGLDADQVDAHADAINELTDAGCEVGAVVGGGGVARDYIGTARELGANEIELDDIGVDVTRLNARLLIAALGGDAAPSPAEDYEDAGEAMRRGDIAVMGGVVAGQTTDAVSAALAEYTDADLLLYATSVPGVFSADPNEDADAEHFTRMTAGELVDIIADIEMNAGSSAPVDLLAAKLIERSGVRTIVLDGTDPRRIVDAVRFGEHDGTDVIPDGTDNQMTYWADNQELEHHHHHH | not soluble |
| MRYFLCPGKTDMRKGMNSLCGVIHNKMGYDVRLGDVFIFINRQRTTMKLLHAEDGDLVLYIKRLEEGTFRLPEYDQQSRSYPMEWRDLVMMVKGINNGSAKRLKRLKALRKSDI | not soluble |
| MRYHIALVGRRNSGKSSLLNMLAGQQISIVSDIKGTTTDAVAKAYELQPLGPVTFYDTAGIDDEGTLGAMRVSATRRVLFRSDMALLVVDEQGLCPSDMALIDEIRQLQMPILMVFNKADICTPKAEDIAFCQNQSLPFIVVSAATGLAGKQLKQLMVELAPAEYKQEPLLAGDLYQAGDVILCVVPIDMAAPKGRLILPQVQILREALDRSAIAMVVKETELAQALSVVTPKLVISDAQAIKQVAAIVPDAVPLTTFSTLFARFKGDLAALATGADALDTLQDGDKVLISEACSHNVQEDDIGRVKLPRWINSYTGKQLEFVVTSGHDFPNDLEQYALVIHCGACMFNRNEMLRRIRECQRRQVPITNYGVAISKLQGVLPRVLTPFNRNPQQLEHHHHHH | soluble |
| MRYSSRMPGSVMPGAGAHPRIPQVQTSVANSQILGYLGRALSLEFTAGQHYLAQASLAKFRQEISYAEGFITLANEEFQHANLITDRMVAQGALPAGSVLRPAGSANNIAEALKSCEEREIALIQLYTEATQYCANMGAQEDHALFSRLLEEEQSQLMRVQAWLQDYFQMMANTYQPDRSFV | not soluble |
| MSAAGDLRRRARLSRLVSFSASHRLHSPSLSDEENLRVFGKCNNPNGHGHNYKVVVTVHGEIDPVTGMVMNLTDLKEYMEEAIMKPLDHKNLDLDVPYFADAVSTTENVAVYIWESLQKLLPVGALYKVKVFETDNNIVVYKGE | soluble |
